Consider two substances from patent publication US20230203202A1.

The target of assay [1] is poly-specificity reagent (PSR). Briefly: flow cytometry PSR assay on protein A beads; same quadrant without PSR: 9.17E-3. (Flow cytometry measures light scatter and fluorescence of single cells or particles in a stream.)
The target in assay [2] is poly-specificity reagent (PSR). Briefly: flow cytometry PSR assay on protein A beads; same quadrant without PSR: 0.046.
Assay [3] addresses poly-specificity reagent (PSR). Briefly: flow cytometry PSR assay on protein A beads; same quadrant without PSR: 0.025.
The target of assay [4] is poly-specificity reagent (PSR). Briefly: flow cytometry PSR assay on protein A beads; same quadrant without PSR: 0.

Turning to Rituximab (antibody), the Q3 (Expression-FITC low, Binding-PE high), + PSR in assay [1] came to 0.82. Besides, in assay [2], the Q2 (Expression-FITC high, Binding-PE high), + PSR was found to be 69.8.

As for Trastuzumab (antibody), the Q2 (Expression-FITC high, Binding-PE high), + PSR in assay [3] stood at 0.37. Besides, in assay [4], the Q3 (Expression-FITC low, Binding-PE high), + PSR stood at 0.049.
